In US20030120051A1 (SUGEN, published 2003):

What was measured:
[1] = molecular target: endogenous c-Src of rat GH3 cells (rat, UniProt Q9WUD9 2-536, limits assumed); experiment: immunoprecipitation and immunoblotting of endogenous proteins in GH3 cells
[2] = molecular target: human c-Src (human, UniProt P12931 2-536); experiment: immunoprecipitation and immunoblotting of endogenous proteins in IMR-32 cells

B1: rat CASPR/p190 (receptor)
chain: WGYYGCNEELVGPLYARSLGASSYYGLFTTARFARLHGISGWSPRIGDPNPWLQIDLMKKHRIRAVATQGAFNSWDWVTRYMLLYGDRVDSWTPFYQQGHNATFFGNVNDSAVVRHDLHYHFTARYIRIVPLAWNPRGKIGLRLGIYGCPYTSNILYFDGDDAISYRFQRGASQSLWDVFAFSFKTEEKDGLLLHTEGSQGDYVTLELQGAHLLLHMSLGSSPIQPRPGHTTVSAGGVLNDLSWHYVRVDRYGREANLTLDGYVHRFVLNGDFERLNLENEIFIGGLVGAARKNLAYRHNFRGCIENVIYNRINIAEMAVQRHSRITFEGNVAFRCLDPVPHPINFGGPHNFVQVPGFPRRGRLAVSFRFRTWDLTGLLLFSRLGDGLGHVELMLSEGQVNVSIAQTGRKKLQFAAGYRLNDGFWHEVNFVAQENHAVISIDDVEGAEVRVSYPLLIRTGTSYFFGGCPKPASRWGCHSNQTAFHGCMELLKVDGQLVNLTLVEFRKLGYFAEVLFDTCGITDRCSPNMCEHDGRCYQSWDDFICYCELTGYKGVTCHEPLYKESCEAYRLSGKYSGNYTIDPDGSGPLKPFVVYCDIRENRAWTVVRHDRLWTTRVTGSSMDRPFLGAIQYWNASWEEVSALANASQHCEQWIEFSCYNSRLLNTAGGYPYSFWIGRNEEQHFYWGGSQPGIQRCACGLDQSCIDPALHCNCDADQPQWRTDKGLLTFVDHLPVTQVVIGDTNRSSSEAQFFLRPLRCYGDRNSWNTISFRTGAALRFPPIRANHSLDVSFYFRTSAPSGVFLENMGGPFCQWRRPYVRVELNTSRDVVFAFDIGNGDENLTVHSDDFEFNDDEWHLVRAEINVKQARLRVDHRPWVLRPMPLQTYIWLEYDQPLYVGSAELKRRPFVGCLRAMRLNGVTLNLEGRANASEGTFPNCTGHCTHPRFPCFHGGRCVERYSYYTCDCDLTAFDGPYCNHDIGGFFETGTWMRYNLQSALRSAAQEFSHMLSRPVPGYEPGYIPGYDTPGYVPGYHGPGYRLPDYPRPGRPVPGYRGPVYNVTGEEVSFSFSTSSAPAVLLYVSSFVRDYMAVLIKEDGTLQLRYQLGTSPYVYQLTTRPVTDGQPHSVNITRVYRNLFIQVDYFPLTEQKFSLLVDSQLDSPKALYLGRVMETGVIDPEIQRYNTPGFSGCLSGVRFNNVAPLKTHFRTPRPMTAELAEAMRVQGELSESNCGAMPRLVSEVPPELDPWYLPPDFPYYHDDGWIAILLGFLVAFLLLGLVGMLVLFYLQNHRYKGSYHTNEPKATHDSHPGGKAPLPPSGPAQAPAPTPAPTQVPTPAPAPASGPGPRDQNLPQILEESRSE
notes: Endogenous in GH3 cells and rat brain, or expressed from pCM190R in COS7 cells; read from membrane lysates; no cleavage site stated; also called Contactin ASsociated PRotein; 190 kDa protein
binding result [1]: no binding

B2: human CASPR/p190 (receptor)
chain: WGYYGCDEELVGPLYARSLGASSYYSLLTAPRFARLHGISGWSPRIGDPNPWLQIDLMKKHRIRAVATQGSFNSWDWVTRYMLLYGDRVDSWTPFYQRGHNSTFFGNVNESAVVRHDLHFHFTARYIRIVPLAWNPRGKIGLRLGLYGCPYKADILYFDGDDAISYRFPRGVSRSLWDVFAFSFKTEEKDGLLLHAEGAQGDYVTLELEGAHLLLHMSLGSSPIQPRPGHTTVSAGGVLNDQHWHYVRVDRFGRDVNFTLDGYVQRFILNGDFERLNLDTEMFIGGLVGAARKNLAYRHNFRGCIENVIFNRVNIADLAVRRHSRITFEGKVAFRCLDPVPHPINFGGPHNFVQVPGFPRRGRLAVSFRFRTWDLTGLLLFSRLGDGLGHVELTLSEGQVNVSIAQSGRKKLQFAAGYRLNDGFWHEVNFVAQENHAVISIDDVEGAEVRVSYPLLIRTGTSYFFGGCPKPASRWDCHSNQTAFHGCMELLKVDGQLVNLTLVEGRRLGFYAEVLFDTCGITDRCSPNMCEHDGRCYQSWDDFICYCELTGYKGETCHTPLYKESCEAYRLSGKTSGNFTIDPDGSGPLKPFVVYCDIRENRAWTVVRHDRLWTTRVTGSSMERPFLGAIQYWNASWEEVSALANASQHCEQWIEFSCYNSRLLNTAGGYPYSFWIGRNEEQHFYWGGSQPGIQRCACGLDRSCVDPALYCNCDADQPQWRTDKGLLTFVDHLPVTQVVIGDTNRSTSEAQFFLRPLRCYGDRNSWNTISFHTGAALRFPPIRANHSLDVSFYFRTSAPSGVFLENMGGPYCQWRRPYVRVELNTSRDVVFAFDVGNGDENLTVHSDDFEFNDDEWHLVRAEINVKQARLRVDHRPWVLRPMPLQTYIWMEYDQPLYVGSAELKRRPFVGCLRAMRLNGVTLNLEGRANASEGTSPNCTGHCAHPRLPCFHGGRCVERYSYYTCDCDLTAFDGPYCNHDIGGFFEPGTWMRYNLQSALRSAAREFSHMLSRPVPGYEPGYIPGYDTPGYVPGYHGPGYRLPDYPRPGRPVPGYRGPVYNVTGEEVSFSFSTSSAPAVLLYVSSFVRDYMAVLIKDDGTLQLRYQLGTSPYVYQLTTRPVTDGQPHSINITRVYRNLFIQVDYFPLTEQKFSLLVDSQLDSPKALYLGRVMETGVIDPEIQRYNTPGFSGCLSGVRFNNVAPLKTHFRTPRPMTAELAEALRVQGELSESNCGAMPRLVSEVPPELDPWYLPPDFPYYHDEGWVAILLGFLVAFLLLGLVGMLVLFYLQNHRYKGSYHTNEPKAAHEYHPGSKPPLPTSGPAQVPTPTAAPNQAPASAPAPAPTPAPAPGPRDQNLPQILEESRSE
notes: Endogenous in IMR-32 neuroblastoma cells
binding result [2]: no binding
